The conditions of data set [1]: human, in vivo; cited from earlier work.
For data set [2], the system named is plasmin induced lysis of clot formed in whole blood. The data set is described as follows: Thromboelastography, plasmin induced clot lysis in whole blood. It is filed as biochemical, human. As to conditions: for G / LY30 / LY60 / MA: NHB + […] plasmin. As to the method:
Plasmin and CaCl2) were added last to initiate simultaneous clotting and fibrinolysis. […] The thromboelastograph was calibrated each day and each inhibitor concentration was tested in duplicate. TEG Analytical Software (version 4.2.2; Haemonetics Corporation, Braintree, MA) was used to calculate the time to clot initiation (R), maximal clot strength (maximal amplitude (MA), which was directly related to the shear elastic modulus strength, G), and percent lysis 60 minutes after MA (LY60) (42).

Data set [3] deals with HUVEC. It is filed as cell-based, human. Here is the method: (§1) Resazurin reduction assay (Fisher Scientific) was used to evaluate the potential cytotoxicity of antifibrinolytic agents toward primary human endothelial cells and skin fibroblasts. Phosphate buffer that was used to dissolve the samples was included as negative control. The assay is based on reduction of the non-fluorescent dye resazurin, to the highly fluorescent resorufin by viable cells. […] Briefly, cells in 96-well cell culture plates were treated with different concentrations of antifibrinolytic compounds (as described above). After 24 hours resazurin reagent was added to each well and the plates were incubated at 37° C. for 4 hours. Fluorescence was measured by the FLUOstar Omega Microplate Reader (BMG Labtech) using an excitation wavelength of 544 nm and an emission wavelength of 590 nm. Each assay was done in duplicate, with three replicates each. The viability was evaluated based on comparison with untreated cells.

The test system of data set [4] is primary human dermal skin fibroblasts. The experiment in a line: Resazurin reduction (alamarBlue) viability assay, skin fibroblasts. It is filed as cell-based. As to the method: as §1
In general terms: Resazurin is reduced to fluorescent resorufin, in cell work by metabolically active cells.

Data set [5] has as its system HUVEC. As to conditions: 24 hours; 30 μM KD1TM, 30 μM BPTI, 60 mM EACA, 30 mM TXA. The text has this:
(§2) Primary human pooled umbilical vein endothelial cells (HUVEC) were obtained from ATCC. The cells were maintained in Vascular Cell Basal Medium (ATCC), supplemented with the Endothelial Cell Growth Kit-BBE (ATCC) and Penicillin-Streptomycin-Amphotericin B (ATCC). Primary human dermal skin fibroblasts were obtained from LONZA and maintained in Fibroblast Basal Medium (FBMTM, LONZA), supplemented with a cocktail of growth factors, fetal bovine serum and antibiotics (FGMTM-2 SingleQuots™, LONZA). All cells were maintained in a humidified 5% C02 atmosphere at 37° C. and were passaged once they reached 80% confluence. All experiments were performed with cells in the logarithmic growth phase.
(§3) For toxicity studies, cells were seeded into 96-well or 24-well cell culture plates at 3,500 cells/cm2 and were used for experiments once they reached 80% confluence.
(§4) Cell toxicity and cell death was evaluated with the CellTox™ Green Cytotoxicity Assay (Promega). This assay measures changes in membrane integrity that occur as a result of cell death. The dye used in the system is excluded from viable cells but binds to DNA in compromised cells, which results in a fluorescent signal. We measured cell death in HUVEC and primary fibroblasts treated with antifibrinolytic agents at 4 concentrations (as indicated above) with triplicates per concentration in 24-well plates after 24 hours of exposure. Hoechst (Thermo Fisher Scientific) was used to stain all nuclei. Images of cells were captured using an inverted microscope (Nicon; Edipse T2000 TE). Green fluorescent cells (FITC filter) and Hoechst stained cells (DAPI filter) were counted using Image J software.

For data set [6], the system named is primary human dermal skin fibroblasts. As to conditions: 24 hours; 30 μM KD1TM, 30 μM BPTI, 60 mM EACA, 30 mM TXA.
Excerpt: as §2, §3, §4

Data set [7] addresses T1, human plasmin (human, UniProt P00747 97-810).
T1 construct: Plasmin is a two-chain enzyme derived from plasminogen; also called Pm
The experiment in a line: amidolytic inhibition of 3 nM plasmin, tight-binding equation. As to the method: All reactions were carried out in TBS, pH 7.5 (50 mM Tris-HCL, pH 7.5, containing 100 mM NaCl), containing 0.1 mg bovine serum albumin/ml (TBS/BSA) and 2 mM Ca2+(TBS/BSA/Ca2+, pH 7.5). […] The inhibition constant, K* was determined using the nonlinear regression data analysis program Grafit.

The target of data set [8] is T1, human plasmin. The data set is described as follows: residual activity of 3 nM plasmin (percent fractional activity by the legend; the axis is labelled % Pm Inhibition), substrate S-2251 [A].
Data set [9] deals with T1, human plasmin. The data set is described as follows: cell-based or functional assay.

T1 sequence (P00747 97-810 limits assumed): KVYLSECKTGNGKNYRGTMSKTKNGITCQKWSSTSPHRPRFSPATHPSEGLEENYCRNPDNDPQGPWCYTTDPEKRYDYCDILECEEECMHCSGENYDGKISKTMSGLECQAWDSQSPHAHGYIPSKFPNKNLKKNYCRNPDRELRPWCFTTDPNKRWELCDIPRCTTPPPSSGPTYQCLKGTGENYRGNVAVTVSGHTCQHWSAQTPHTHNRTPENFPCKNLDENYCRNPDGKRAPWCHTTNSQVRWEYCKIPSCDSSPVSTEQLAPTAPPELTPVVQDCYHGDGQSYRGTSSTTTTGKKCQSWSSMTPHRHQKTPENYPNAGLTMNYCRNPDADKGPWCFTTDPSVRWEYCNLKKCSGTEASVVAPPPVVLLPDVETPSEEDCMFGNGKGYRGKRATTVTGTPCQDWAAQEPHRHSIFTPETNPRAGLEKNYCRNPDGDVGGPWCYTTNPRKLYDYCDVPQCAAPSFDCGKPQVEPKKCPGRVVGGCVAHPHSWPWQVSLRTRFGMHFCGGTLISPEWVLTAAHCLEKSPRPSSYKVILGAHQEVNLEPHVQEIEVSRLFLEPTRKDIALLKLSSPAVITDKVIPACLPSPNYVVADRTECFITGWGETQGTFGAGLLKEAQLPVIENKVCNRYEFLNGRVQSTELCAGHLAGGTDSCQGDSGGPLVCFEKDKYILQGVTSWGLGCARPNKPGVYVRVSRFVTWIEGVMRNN

By half-life is commonly meant the time in which the quantity being followed falls by half. On to Ecallantide, for which, in data set [1], the half-life is around 2 h.

Turning to `NCCCCCC(=O)O` [EACA, ε-aminocaproic acid], the G in data set [2] is given as 2388.0 ± 49.6 dyn/cm^2. In data set [2] (inhibitor 200 μM), the G is listed as 153.25 ± 9.8 dyn/cm^2, the LY30 turned out to be 0%, the LY60 was 0% and the MA worked out at 3.20 ± 0.71 mm. In data set [2] (inhibitor 500 μM), the G turned out to be 747.75 ± 14.8 dyn/cm^2, the LY30 came out at 0%, the LY60 is 0% and the MA was found to be 13.15 ± 0.64 mm. In [2] (inhibitor 1000 μM), the G stood at 1070.1 ± 35.0 dyn/cm^2, the LY30 was 0%, the LY60 worked out at 16.8 ± 0.35% and the MA was determined as 16.40 ± 0.28 mm. For the same molecule, in [2] (inhibitor 3000 μM), the LY30 is on record as 0%, the LY60 is 0.6 ± 0.04% and the MA is reported as 32.60 ± 0.71 mm. In [2] ([…] plasmin, 3 mM EACA), the “G restored, relative to blood without plasmin” value is on record as around 50% and the “MA restored, relative to blood without plasmin” value is on record as around 67%. Further, the “HUVEC viability (FIG. 4)” value with HUVEC [3] is “not significantly different from the untreated cells”. In addition, the “Fibroblast cell viability (FIG. 5)” value in [4] was “not significantly different from the untreated cells”. Moreover, in the data set on HUVEC [5], the “HUVEC cytotoxicity, CellTox green (FIG. 7)” value is listed as “only observed in skin fibroblasts”. Also, the “Fibroblasts cytotoxicity, CellTox green (FIG. 8)” value in [6] was “significant toxicity”.

B1: KD1-Y11T/L17R-KT (E. Coli) (designed binder)
chain: MGSSHHHHHHSSGHIDDDDKNAEICLLPLDTGPCRARLLRYYYDRYTQSCRQFLYGGCEGNANNFYTWEACDDACWRIEK
notes: also called KD1DM; E. coli expressed KD1-Y11T/L17R-KT
By Ki is commonly meant a measure of affinity in units of concentration, obtained from inhibition or displacement. Read a low Ki as higher affinity. As for B1, affinity with human plasmin [7] was put at a Ki of 0.59 nM. Also, the “IC50 (read off the curve)” value with human plasmin [8] lay in the range of 2 to 3 nM.

B2: KD1-WT (other)
chain: DAAQEPTGNNAEICLLPLDYGPCRALLLRYYYDRYTQSCRQFLYGGCEGNANNFYTWEACDDACWRIEKVPKV
notes: also called Wild-type KD1; E. coli expressed KD1-WT (IIa cleavage site); not shown: N-terminal residues left from the IIa (thrombin) cleavage site
In the case of B2, in the data set with human plasmin [9], the “TEG G, 1 µM inhibitor, whole blood + 1.5 µM plasmin” value came out at 79 dyn/cm^2; the “TEG G, 2 µM inhibitor, whole blood + 1.5 µM plasmin” value came to 108 dyn/cm^2; the “TEG G, 3 µM inhibitor, whole blood + 1.5 µM plasmin” value was 180 dyn/cm^2; the “TEG G, 5 µM inhibitor, whole blood + 1.5 µM plasmin” value stood at 818 dyn/cm^2. For the same molecule, in the data set with human plasmin [9], the “TEG G, 7.5 µM inhibitor, whole blood + 1.5 µM plasmin” value is 820 dyn/cm^2; the “TEG LY30, 1 µM inhibitor, whole blood + 1.5 µM plasmin” value was 100%; the “TEG LY30, 2 µM inhibitor, whole blood + 1.5 µM plasmin” value amounted to 100%; the “TEG LY30, 3 µM inhibitor, whole blood + 1.5 µM plasmin” value came to 100%. Moreover, in the data set with human plasmin [9], the “TEG LY30, 5 µM inhibitor, whole blood + 1.5 µM plasmin” value came to 6.5%; the “TEG LY30, 7.5 µM inhibitor, whole blood + 1.5 µM plasmin” value was found to be 0%; the “TEG LY60, 1 µM inhibitor, whole blood + 1.5 µM plasmin” value came out at 100%; the “TEG LY60, 2 µM inhibitor, whole blood + 1.5 µM plasmin” value came out at 100%. In addition, in the data set with human plasmin [9], the “TEG LY60, 3 µM inhibitor, whole blood + 1.5 µM plasmin” value worked out at 100%; the “TEG LY60, 5 µM inhibitor, whole blood + 1.5 µM plasmin” value was found to be 22.4%; the “TEG LY60, 7.5 µM inhibitor, whole blood + 1.5 µM plasmin” value was 0%; the “TEG MA, 1 µM inhibitor, whole blood + 1.5 µM plasmin” value was determined as 1.45 mm. For the same molecule, in the data set with human plasmin [9], the “TEG MA, 2 µM inhibitor, whole blood + 1.5 µM plasmin” value was determined as 2.23 mm; the “TEG MA, 3 µM inhibitor, whole blood + 1.5 µM plasmin” value was 3.49 mm; the “TEG MA, 5 µM inhibitor, whole blood + 1.5 µM plasmin” value stood at 13.9 mm; the “TEG MA, 7.5 µM inhibitor, whole blood + 1.5 µM plasmin” value is 11.7 mm. For the same molecule, the Ki in the data set with human plasmin [7] came to 6 nM. Further, the “IC50 (read off the curve)” value with human plasmin [8] is around 9 nM.

The values are drawn from patent publication US20230331817A1 (The Regents of the University of California, priority 2020, published 2023).
